From article PMC3148490 (Cell metabolism, 2011) come the findings set out here.

The target in test [1] is T1, t-SNAREs: heterodimeric complex of syntaxin-1 and SNAP-25, membrane-integrated in liposomes (UniProt P32851 1-288; P60881 1-206). The experiment in a line: co-sedimentation.
Test [2] concerns the target T1, t-SNAREs: heterodimeric complex of …. Description: co-sedimentation. This is another data set of the same source.

T1 sequence (P32851 whole entry, chain 1 of 2): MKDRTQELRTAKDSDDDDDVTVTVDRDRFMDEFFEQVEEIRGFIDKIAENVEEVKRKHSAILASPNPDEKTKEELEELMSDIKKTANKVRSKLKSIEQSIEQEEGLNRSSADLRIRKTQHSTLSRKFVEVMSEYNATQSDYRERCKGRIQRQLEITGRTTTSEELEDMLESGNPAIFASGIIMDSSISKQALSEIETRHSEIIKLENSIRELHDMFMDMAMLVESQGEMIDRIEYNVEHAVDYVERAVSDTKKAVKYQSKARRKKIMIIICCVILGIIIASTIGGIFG
T1 sequence (P60881 whole entry, chain 2 of 2): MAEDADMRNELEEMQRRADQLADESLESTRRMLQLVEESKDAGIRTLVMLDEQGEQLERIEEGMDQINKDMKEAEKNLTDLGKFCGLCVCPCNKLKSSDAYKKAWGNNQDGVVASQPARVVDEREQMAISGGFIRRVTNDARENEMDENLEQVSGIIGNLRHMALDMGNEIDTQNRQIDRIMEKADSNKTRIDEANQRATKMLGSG

B1: MBP-DAMH (MBP fusion protein of the CAPS DAMH domain) (domain or fragment, UniProt Q62717 859-1073, looked up)
chain: ENVGRLITPAKKLEDTIRLAELVIEVLQQNEEHHAEAFAWWSDLMVEHAETFLSLFAVDMDAALEVQPPDTWDSFPLFQLLNDFLRTDYNLCNGKFHKHLQDLFAPLVVRYVDLMESSIAQSIHRGFERESWEPVNNGSGTSEDLFWKLDALQTFIRDLHWPEEEFGKHLEQRLKLMASDMIESCVKRTRIAFEVKLQKTSRSTDFRVPQSICTM
Regarding B1, the Kd (in general, a measure of binding affinity in units of concentration) in test [1] was found to be 0.177 µM.

B2: GST-DAMH (GST fusion protein of CAPS(859-1073), the DAMH domain) (domain or fragment, UniProt Q62717 859-1073, looked up)
chain: ENVGRLITPAKKLEDTIRLAELVIEVLQQNEEHHAEAFAWWSDLMVEHAETFLSLFAVDMDAALEVQPPDTWDSFPLFQLLNDFLRTDYNLCNGKFHKHLQDLFAPLVVRYVDLMESSIAQSIHRGFERESWEPVNNGSGTSEDLFWKLDALQTFIRDLHWPEEEFGKHLEQRLKLMASDMIESCVKRTRIAFEVKLQKTSRSTDFRVPQSICTM
B2: the “fold binding against syntaxin-1 or SNAP-25 alone” value in test [2] came to 2 fold.
